Data published in patent US20160009819A1 (SHIONOGI, published 2016).
Substitutions are numbered along the chain they refer to.

T1: mouse EL with C2 tag (mouse, UniProt Q9WVG5 21-500)
T1 construct: Heparin extract of transfected HEK293F cells; also called mouse E1; not shown: C2 tag
T1 sequence (looked up): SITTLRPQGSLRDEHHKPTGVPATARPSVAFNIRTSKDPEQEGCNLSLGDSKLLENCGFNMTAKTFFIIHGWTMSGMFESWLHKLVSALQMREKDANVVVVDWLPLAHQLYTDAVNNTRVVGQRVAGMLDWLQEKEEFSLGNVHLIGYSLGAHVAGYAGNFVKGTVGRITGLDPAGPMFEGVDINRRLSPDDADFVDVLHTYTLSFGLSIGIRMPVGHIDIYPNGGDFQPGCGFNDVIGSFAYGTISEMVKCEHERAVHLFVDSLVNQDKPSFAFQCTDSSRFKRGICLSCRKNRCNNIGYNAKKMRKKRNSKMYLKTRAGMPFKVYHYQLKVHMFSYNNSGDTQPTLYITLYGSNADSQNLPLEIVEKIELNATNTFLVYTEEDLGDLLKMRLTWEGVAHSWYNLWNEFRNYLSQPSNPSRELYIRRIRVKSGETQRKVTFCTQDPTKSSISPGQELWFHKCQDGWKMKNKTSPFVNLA

T2: human [1-305]-mouse chimeric EL with C2 tag (human; mouse, UniProt Q9WVG5 306-500)
T2 construct: Heparin extract of transfected HEK293F cells; probably 97; Built here from the name of the chimera; not shown: C2 tag
T2 sequence: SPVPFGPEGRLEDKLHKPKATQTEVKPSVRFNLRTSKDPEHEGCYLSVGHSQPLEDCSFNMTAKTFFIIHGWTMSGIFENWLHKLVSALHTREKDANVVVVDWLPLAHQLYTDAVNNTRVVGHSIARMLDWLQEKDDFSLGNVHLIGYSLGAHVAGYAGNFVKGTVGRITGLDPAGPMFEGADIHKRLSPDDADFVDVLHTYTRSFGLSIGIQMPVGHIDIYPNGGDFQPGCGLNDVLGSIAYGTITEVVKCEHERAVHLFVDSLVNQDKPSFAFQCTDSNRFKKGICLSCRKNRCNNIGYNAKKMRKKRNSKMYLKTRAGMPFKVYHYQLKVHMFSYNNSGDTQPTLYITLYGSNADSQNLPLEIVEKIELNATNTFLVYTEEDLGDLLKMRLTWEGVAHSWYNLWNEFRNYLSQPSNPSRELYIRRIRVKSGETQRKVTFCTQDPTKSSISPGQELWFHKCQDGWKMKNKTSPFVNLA

T3: baboon EL (vascular endothelial lipase) with C2 tag (baboon, UniProt Q9Y5X9 21-500 (human entry), limits assumed)
T3 construct: also called baboon EL-C2 tag
T3 chain: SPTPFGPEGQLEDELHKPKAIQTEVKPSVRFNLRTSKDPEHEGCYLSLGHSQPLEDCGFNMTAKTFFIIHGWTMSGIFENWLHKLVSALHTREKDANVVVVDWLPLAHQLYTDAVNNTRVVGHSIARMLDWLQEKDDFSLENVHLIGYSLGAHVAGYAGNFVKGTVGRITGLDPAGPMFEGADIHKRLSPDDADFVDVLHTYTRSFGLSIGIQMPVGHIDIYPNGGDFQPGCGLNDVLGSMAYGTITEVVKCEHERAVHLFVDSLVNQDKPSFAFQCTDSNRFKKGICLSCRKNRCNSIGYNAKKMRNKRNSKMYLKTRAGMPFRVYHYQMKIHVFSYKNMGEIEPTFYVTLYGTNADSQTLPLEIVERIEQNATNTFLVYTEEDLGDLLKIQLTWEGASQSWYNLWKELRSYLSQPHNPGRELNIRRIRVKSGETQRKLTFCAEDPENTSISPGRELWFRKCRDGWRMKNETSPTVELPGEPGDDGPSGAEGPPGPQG

T4: human [1-157]-mouse chimeric EL with C2 tag (human; mouse, UniProt Q9WVG5 158-500)
T4 construct: Heparin extract of transfected HEK293F cells; shifted by one: 4); Built here from the name of the chimera; not shown: C2 tag
T4 sequence: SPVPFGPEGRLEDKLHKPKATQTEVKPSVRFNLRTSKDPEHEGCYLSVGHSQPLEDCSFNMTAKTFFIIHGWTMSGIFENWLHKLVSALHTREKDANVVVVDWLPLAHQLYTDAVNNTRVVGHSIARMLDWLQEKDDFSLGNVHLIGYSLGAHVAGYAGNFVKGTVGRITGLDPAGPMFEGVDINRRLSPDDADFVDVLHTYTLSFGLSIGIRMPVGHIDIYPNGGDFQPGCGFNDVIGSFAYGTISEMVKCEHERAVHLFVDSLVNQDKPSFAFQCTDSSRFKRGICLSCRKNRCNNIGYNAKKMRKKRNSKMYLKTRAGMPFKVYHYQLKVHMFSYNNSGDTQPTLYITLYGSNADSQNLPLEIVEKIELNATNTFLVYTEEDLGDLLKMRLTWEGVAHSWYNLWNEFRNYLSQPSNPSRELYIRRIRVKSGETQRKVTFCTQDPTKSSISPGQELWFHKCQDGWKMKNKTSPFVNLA

B1: 55A1 antibody (antibody, V domains shown)
VH: QIHLVQSGPELKKPGETVKISCKASGYTFTNYGMNWVKQAPGKGLKWMGWINTYSGVPTYAGDFKGRFAFSLETSASTAYLQINNLKNEDTATYFCARRGYYGRRYFDVWGTGTTVTVSS
VL: DIVLTQSPASLAVSLGQRATISCKASQSVDYDVDSYMHWYQQKPGQPPKLLIYAASNLASGIPARFSGGGSGTDFTLNIHPVEEEDVATYYCQQTIEDPPTFGGGTKLEIK
notes: Mouse hybridoma antibody, IgG2a
B2: 16B3 antibody (antibody, V domains shown)
VH: DVKLVESGGGLVQPGGSLKLSCTASGFTFSGYTMSWVRQTPEKRLELVAEISFARDRAFYPDTVKGRFTISRDNAKNTLYLQMSSLKSEDTAMYYCTRLGGRNHDYWYFDVWGTGTTVTVSS
VL: DIVLTQSPTSLAVSPGQRATISCRASESVEYYGTSLMQWYQQKPGQRPQLLIYAASNVESGVPARFSGSGSGTDFSLNIHPVEEDDIAVYFCQQSWKVPFTFGSGTKLEIK
notes: as for B1
B3: 16E7 antibody (antibody, V domains shown)
VH: B2 VH with D1E, T23A, G31S, A54T, D56S, T97A, R102N, H104Y
VL: B2 VL with P15L, Q49K, V89M
notes: Mouse hybridoma antibody, IgG1
B4: 14A1 antibody (antibody, V domains shown)
VH: QIQLVQSGPELKKPGETVKISCKASGYTFTNYGMNWVKQAPGKGLKWMGWINTYSGVPTYADDFKGRFAFSLETSASTAYLQINNFKNEDTATYFCARFSYYGRHYFDYWGQGTALTASS
VL: DIVLTQSPASLAVSLGQRATISCKASQSVDYDGDSYMNWYQQKPGQPPKLLIYAASNLKSGIPARFSGSGSGTDFTLNIHPVEEEDAATYYCQQTTDDPPWTFGGGTKLEIK
notes: as for B3
B5: 2D5 antibody (antibody, V domains shown)
VH: B4 VH with A61T, Y80F, F86L, A115T, A118V
VL: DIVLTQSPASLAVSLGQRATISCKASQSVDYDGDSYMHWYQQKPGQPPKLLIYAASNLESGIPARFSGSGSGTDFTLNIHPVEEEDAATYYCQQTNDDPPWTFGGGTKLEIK
notes: as for B1
B6: 7D4 antibody (antibody, V domains shown)
VH: B4 VH with G44D, F86L, A115T, A118V
VL: B4 VL with K49Q, K59G, Q93H, T95S
notes: as for B3
B7: 13B3 antibody (antibody, V domains shown)
VH: EVQLQQSGPELLKPGASVKISCKASGYTFTEYTMHWVKQSHGKSLEWIGSINPYYGGTSYNEKFKDKATLTVDKSSNTAYMEFRSLTSEDCAVYYCARYGNYVGYFDYWGQGTTLTVSS
VL: ENVLTQSPAIMSASLGEKVTMSCRASSSVHYMYWYQQKSDASPKLWIYYTSNLAPGVPDRFSGSGSGNSYSLTISSMEGEDAATYYCQQFTSSPYTFGGGTKLEIK
notes: as for B1
B8: 53A11 antibody (antibody, V domains shown)
VH: EVQLQQSGPELLKPGASVKISCKASGYTFTDYTMHWVKQSHGKSLEWIGGINPYYGGTTYNEKFKDKATLTVDKSSSTAYMELRSLTSEDSAVYYCAKGDYYGGSYNYWGQGTTLTVSS
VL: DIVLTQSLATLSVTPGDSVSLSCRASQDISNSLHWYQQKSHESPRLLIKYASQSISGIPSRFSGSGSGTDFTLSINSVETEDFGMYFCQQSNSWPYTFGGGTKLEIK
notes: as for B1
B9: 19E7 antibody (antibody, V domains shown)
VH: QVQLQQPGSVLVRPGASVKLSCKASGYTFTTYWMHWVKQRPGQGLEWIGEIHPYSGNNNNNEKFKGKATLTVDTSSSTAYVDLSRLTSEDSAVYYCARYDSNYVFAYWGQGTLVTVSA
VL: QIVLTQSPAIMSASPGEGVTITCSASSSVSYMHWFQQKPGTSPKLWIYSTSNLASGVPARFSGSGSGTSYSLTISRMEAEDAATYYCQQRDSYLTFGSGTKLEVK
notes: as for B1
B10: 23H8 antibody (antibody, V domains shown)
VH: EVQLQQSGPELLKPGASVKISCKASGYTFTDNTIHWVKQSHGKSLEWIGHINPYYGGTNNNEKFKDKATLTVDKSSSTAYMELRSLTSEDSAIYYCARKGIYYSSPFDYWGQGTTLTVSS
VL: DIQMTQTTSSLSASLGDRVTISCRASQDINNYLNWYQQKPDGTVKLLISYTSKLHSGVPSRFSGSGSGTDYSLTISNLEREDFATYFCQQGNTLPFTFGSGTNLEIK
notes: as for B1

Columns and labels:
mouse EL with C2 tag = molecular target: T1, mouse EL with C2 tag; assay: ELISA: antibody captured on anti-mouse IgG-Fc plate, C2-tagged EL heparin extract added, anti-C2-tag detection, A450 (Example 8)
Method: (§1) Assay buffer containing 15 μl of anti-EL antibody was added to anti-mouse IgG-Fc antibody-immobilized microtiter plate, and incubated for 2 hr. […] After washing the wells three times with 90 μL, of washing buffer, 15 μl of assay buffer containing biotin-labeled anti-C2-tag antibody and HRP-labeled Streptavidin were added to the wells and incubated at room temperature for 1 hr. After washing the wells three times with 90 μL of washing buffer, 15 μL of TMB+-Substrate-Chromogen (DAKO) was added and incubated at room temperature for 30 min and then 15 μL of 0.05 M H2SO₄ was added and absorbance at 450 nm was measured (FIG. 3A-3K).

[1] = molecular target: T2, human [1-305]-mouse chimeric EL with C2 …; assay: SPR (Biacore), EL captured by anti-C2-tag antibody on CM5 chip, antibody injected, bivalent fit
Method: (§2) The binding affinities of anti-EL antibodies were measured using Biacore. […] Then, anti-EL antibodies were added and the binding affinities were calculated by bivalent fitting of BIAevaluation software.

[2] = molecular target: T3, baboon EL (vascular endothelial lipase) …; assay: ELISA: antibody captured on anti-mouse IgG-Fc plate, C2-tagged EL heparin extract added, anti-C2-tag detection, A450 (Example 8)
Method: as §1

[3] = molecular target: T3, baboon EL (vascular endothelial lipase) …; assay: SPR (Biacore), EL captured by anti-C2-tag antibody on CM5 chip, antibody injected, bivalent fit
Method: as §2

[4] = molecular target: T4, human [1-157]-mouse chimeric EL with C2 …; assay: ELISA: antibody captured on anti-mouse IgG-Fc plate, C2-tagged EL heparin extract added, anti-C2-tag detection, A450 (Example 8)
Method: as §1

| Binder | binding result (mouse EL with C2 tag) | other results |
| --- | --- | --- |
| B1 | no binding (tested: about 300 ng/mL) | – |
| B2 | no binding (tested: about 300 ng/mL) | – |
| B3 | – | kon [1]: 950000 M⁻¹ s⁻¹; EC50 (read off the curve) [2]: ~10 ng/mL |
| B4 | no binding (tested: about 300 ng/mL) | – |
| B5 | no binding (tested: about 300 ng/mL) | – |
| B6 | no binding (tested: about 300 ng/mL) | – |
| B7 | no binding (tested: about 300 ng/mL) | – |
| B8 | no binding (tested: about 300 ng/mL) | – |
| B9 | no binding (tested: about 300 ng/mL) | kon [3]: 67000 M⁻¹ s⁻¹; binding result [4]: no binding (tested: about 300 ng/mL) |
| B10 | no binding (tested: about 300 ng/mL) | – |
